Results from patent US20230042913A1 (COUNCIL OF THE QUEENSLAND INSTITUTE OF MEDICAL RESEARCH, published 2023).

How the values were obtained:
[1] = molecular target: T1, mouse PD-1 transiently expressed by HEK-293 cells (mouse, UniProt Q02242 25-288); assay: flow cytometry competition: blocking of biotinylated PD-L1-Fc binding to muPD-1 on transfected HEK-293 cells
T1 construct: whole, on cells; also called muPD-1
T1 sequence (looked up): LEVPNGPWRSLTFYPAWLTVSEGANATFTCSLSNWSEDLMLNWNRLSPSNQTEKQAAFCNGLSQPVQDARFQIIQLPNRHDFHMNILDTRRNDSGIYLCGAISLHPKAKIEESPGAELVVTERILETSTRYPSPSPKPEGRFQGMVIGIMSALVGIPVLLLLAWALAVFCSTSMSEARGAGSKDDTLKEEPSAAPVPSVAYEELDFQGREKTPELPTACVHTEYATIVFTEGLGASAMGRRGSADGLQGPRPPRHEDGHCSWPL
Description: FIG. 31 is a graphical representation showing antibody competition of PD-1/PD-L1 binding. HEK-293 cells transiently transfected with mouse PD-1 were incubated with various concentrations of either anti-RANKL/PD-1 bispecific, anti-PD-1 mAb RMP1-14, rat IgG2a isotype control or human IgG1 isotype control for 30 minutes on ice. Secondly, cells were incubated with 2.5 μg of biotinylated recombinant murine PD-L1-Fc for an additional 30 minutes on ice. After two washes with FACS buffer (PBS+10% FCS), a final incubation with Streptavidin-APC for extra 30 minutes on ice. Samples and data were analyzed on a Fortessa 4 (BD Biosciences) flow cytometer and analyzed with FlowJo v10 software (Tree Star, Inc.). Representative FACS plots and summary data of inhibition of PD-L1-Fc binding of two independent experiments are shown.

[2] = molecular target: T1, mouse PD-1 transiently expressed by …; assay: summary sentence of Example 25
[3] = molecular target: T2, mouse RANKL transiently expressed by HEK-293 cells (mouse, UniProt O35235 1-316); assay: flow cytometry competition: blocking of biotinylated RANK-Fc binding to muRANKL on transfected HEK-293 cells
T2 construct: whole, on cells; also called muRANKL
T2 sequence (looked up): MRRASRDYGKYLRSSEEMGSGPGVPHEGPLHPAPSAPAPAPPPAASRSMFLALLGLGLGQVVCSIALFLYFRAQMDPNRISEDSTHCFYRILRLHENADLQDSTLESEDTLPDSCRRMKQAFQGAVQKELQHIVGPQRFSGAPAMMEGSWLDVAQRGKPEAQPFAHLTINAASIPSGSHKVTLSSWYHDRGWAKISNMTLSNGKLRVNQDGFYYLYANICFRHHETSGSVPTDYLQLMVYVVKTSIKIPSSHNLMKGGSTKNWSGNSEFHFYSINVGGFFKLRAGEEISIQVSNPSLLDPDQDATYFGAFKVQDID
Description: FIG. 29 is a graphical representation showing antibody competition of RANKL-RANK binding. HEK-293 cells transiently transfected with mouse RANKL were incubated with various concentrations of either anti-RANKL/PD-1 bispecific, anti-RANKL mAb IK22-5, rat IgG2a isotype control or human IgG1 isotype control for 30 minutes on ice. Secondly, cells were incubated with 2.5 μg of biotinylated recombinant murine RANK-Fc for an additional 30 minutes on ice. After two washes with FACS buffer (PBS+10% FCS), a final incubation with Streptavidin-APC for extra 30 minutes on ice. Samples and data were analyzed on a Fortessa 4 (BD Biosciences) flow cytometer and analyzed with FlowJo v10 software (Tree Star, Inc.). Representative FACS plots and summary data of inhibition of RANK-Fc binding of two independent experiments are shown.

B1: anti-PD-1 mAb RMP1-14 (rat IgG2a) (antibody, V domains shown)
VH: EVQLQESGPGLVKPSQSLSLTCSVTGYSITSSYRWNWIRKFPGNRLEWMGYINSAGISNYNPSLKRRISITRDTSKNQFFLQVNSVTTEDAATYYCARSDNMGTTPFTYWGQGTLVTVSS
VL: DIVMTQGTLPNPVPSGESVSITCRSSKSLLYSDGKTYLNWYLQRPGQSPQLLIYWMSTRASGVSDRFSGSGSGTDFTLKISGVEAEDVGIYYCQQGLEFPTFGGGTKLELK
notes: Rat IgG2a monoclonal antibody; also called anti-muPD-1 antibody (RMP1-14 rat IgG2a)
- binding result [1]: binds

B2: bispecific anti-RANKL/PD-1 antibody (IK22-5/RMP1-14) (bispecific antibody)
heavy 1: QVQLKESGPGLVLSSATLSLTCTVSGFSLTNYDVSWIRHLPGKGLEWMGGVWLSGNTEYNSDFKSRLSISRDISKSQVFLKMSNLKIEDTGTYYCARDIGTTSDYWGQGVTVTVSSASTKGPSVFPLAPSSKSTSGGTAALGCLVKDYFPEPVTVSWNSGALTSGVHTFPAVLQSSGLYSLSSVVTVPSSSLGTQTYICNVNHKPSNTKVDKKVEPKSCDKTHTCPPCPAPELLGGPSVFLFPPKPKDTLMISRTPEVTCVVVAVSHEDPEVKFNWYVDGVEVHNAKTKPREEQYNSTYRVVSVLTVLHQDWLNGKEYKCKVSNKALPAPIEKTISKAKGQPREPQVYTLPPCRDELTKNQVSLWCLVKGFYPSDIAVEWESNGQPENNYKTTPPVLDSDGSFFLYSKLTVDKSRWQQGNVFSCSVLHEALHNHYTQKSLSLSPGK
light 1: DIQVTQSPSFLSASVGDRVTFNCKTSQNINKYLAWYQAKFGEGPKLLIFNADSLQSGIPPRFSGSGSGTDFTLTISGLQPEDFATYFCLQYNSWPTFGSGTKLEIKRTVAAPSVFIFPPSDEQLKSGTASVVCLLNNFYPREAKVQWKVDNALQSGNSQESVTEQDSKDSTYSLSSTLTLSKADYEKHKVYACEVTHQGLSSPVTKSFNRGEC
heavy 2: EVQLQESGPGLVKPSQSLSLTCSVTGYSITSSYRWNWIRKFPGNRLEWMGYINSAGISNYNPSLKRRISITRDTSKNQFFLQVNSVTTEDAATYYCARSDNMGTTPFTYWGQGTLVTVSSRTVAAPSVFIFPPSDEQLKSGTASVVCLLNNFYPREAKVQWKVDNALQSGNSQESVTEQDSKDSTYSLSSTLTLSKADYEKHKVYACEVTHQGLSSPVTKSFNRGECDKTHTCPPCPAPELLGGPSVFLFPPKPKDTLMISRTPEVTCVVVAVSHEDPEVKFNWYVDGVEVHNAKTKPREEQYNSTYRVVSVLTVLHQDWLNGKEYKCKVSNKALPAPIEKTISKAKGQPREPQVCTLPPSRDELTKNQVSLSCAVKGFYPSDIAVEWESNGQPENNYKTTPPVLDSDGSFFLVSKLTVDKSRWQQGNVFSCSVLHEALHNHYTQKSLSLSPGK
light 2: DIVMTQGTLPNPVPSGESVSITCRSSKSLLYSDGKTYLNWYLQRPGQSPQLLIYWMSTRASGVSDRFSGSGSGTDFTLKISGVEAEDVGIYYCQQGLEFPTFGGGTKLELKASTKGPSVFPLAPSSKSTSGGTAALGCLVKDYFPEPVTVSWNSGALTSGVHTFPAVLQSSGLYSLSSVVTVPSSSLGTQTYICNVNHKPSNTKVDKKVEPKSC
notes: also called RMP1-14 CH-CL X IK22/5 WT bispecific; anti-RANKL/PD-1 bispecific
- binding result [2]: binds
- IC50 [3]: 2.6 µg/mL

B3: anti-RANKL mAb IK22-5 (rat IgG2a) (antibody, V domains shown)
VH: QVQLKESGPGLVLSSATLSLTCTVSGFSLTNYDVSWIRHLPGKGLEWMGGVWLSGNTEYNSDFKSRLSISRDISKSQVFLKMSNLKIEDTGTYYCARDIGTTSDYWGQGVTVTVSS
VL: DIQVTQSPSFLSASVGDRVTFNCKTSQNINKYLAWYQAKFGEGPKLLIFNADSLQSGIPPRFSGSGSGTDFTLTISGLQPEDFATYFCLQYNSWPTFGSGTKLEIK
notes: Rat IgG2a monoclonal antibody; also called anti-muRANKL antibody (IK22-5 rat IgG2a)
- IC50 [3]: 1.1 µg/mL
